Data as given in patent US20250320281A1.

Tests used:
Test in all cases: cell-based or functional assay
[1] = target: HIV-1 Env of isolate MGRM-G-017 (HIV-1)
[2] = target: HIV-1 Env of isolate MGRM-G-006 (HIV-1)
[3] = target: HIV-1 Env of isolate MGRM-G-024 (HIV-1)
[4] = target: HIV-1 Env of isolate CMU02 (subtype AE) (HIV-1)
[5] = target: HIV-1 Env of isolate MGRM-AE-004 (subtype AE) (HIV-1)
[6] = target: HIV-1 Env of isolate MGRM-AE-007 (HIV-1)
[7] = target: HIV-1 Env of isolate 92UG024 (pseudovirus) (HIV-1)
[8] = target: HIV-1 Env of isolate APV_13 (subtype B pseudovirus) (HIV-1)
[9] = target: HIV-1 Env of isolate QH0692.42 (subtype B pseudovirus) (HIV-1)
[10] = target: HIV-1 Env of isolate 93IN905 (subtype C pseudovirus) (HIV-1)
[11] = target: HIV-1 Env of isolate MGRM-AG-012 (HIV-1)
[12] = target: HIV-1 Env of isolate 98IN022 (HIV-1)
[13] = target: HIV-1 Env of isolate MGRM-C-026 (HIV-1)
[14] = target: HIV-1 Env of isolate 6535.3 (subtype B pseudovirus) (HIV-1)
[15] = target: HIV-1 Env of isolate MGRM-F1-004 (pseudovirus) (HIV-1)
[16] = target: HIV-1 Env of isolate MGRM-Chronic-B-001 (subtype B pseudovirus) (HIV-1)
[17] = target: HIV-1 Env of isolate MGRM-D-005 (pseudovirus) (HIV-1)
[18] = target: HIV-1 92RW020 envelope glycoprotein (Env) on pseudovirus (HIV-1)
[19] = target: HIV-1 envelope glycoprotein (Env) of isolate MGRM-A-014, clade A (HIV-1)
[20] = target: HIV-1 envelope glycoprotein (Env) of isolate 92RW026, clade A (HIV-1)
[21] = target: HIV-1 Env of isolate 98CN009 (CRF07 BC) (HIV-1 isolate 98CN009)
[22] = target: HIV-1 Env of isolate 93TH305 (HIV-1)
[23] = target: HIV-1 Env of pseudovirus MGRM-Chronic-B-024 (HIV-1)
[24] = target: HIV-1 Env of pseudovirus MGRM-Chronic-B-012 (HIV-1)
[25] = target: HIV-1 Env of isolate MGRM-D-011 (clade D pseudovirus) (HIV-1)
[26] = target: HIV-1 Env of isolate 6535.3 (Acute), clade B, on pseudovirus (HIV-1)
[27] = target: HIV-1 Env of isolate 92RW021 (clade A pseudovirus) (HIV-1)
[28] = target: HIV-1 Env of isolate MGRM-D-004 (clade D pseudovirus) (HIV-1)
[29] = target: HIV-1 Env of pseudovirus MGRM-G-019 (HIV-1, clade G isolate MGRM-G-019)
[30] = target: HIV-1 Env of pseudovirus CMU02 (clade CRF01_AE) (HIV-1)
[31] = target: HIV-1 Env of pseudovirus MGRM-G-011 (HIV-1, clade G isolate MGRM-G-011)
[32] = target: HIV-1 Env of pseudovirus MGRM-AG-011 (clade CRF_AG) (HIV-1)
[33] = target: HIV-1 Env of isolate MG RM-D-022 (HIV-1)

4970_K22 (PGT-144) (antibody), sequence (VH): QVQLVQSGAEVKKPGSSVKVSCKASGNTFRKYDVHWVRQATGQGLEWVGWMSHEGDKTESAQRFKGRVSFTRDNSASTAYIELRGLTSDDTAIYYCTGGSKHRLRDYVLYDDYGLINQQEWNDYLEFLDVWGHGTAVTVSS
4970_K22 (PGT-144) (antibody), sequence (VL): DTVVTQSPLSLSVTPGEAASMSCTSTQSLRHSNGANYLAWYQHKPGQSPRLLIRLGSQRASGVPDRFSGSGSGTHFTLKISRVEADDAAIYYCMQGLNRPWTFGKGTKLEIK
4993_K13 (PGT-141) (antibody), sequence (VH): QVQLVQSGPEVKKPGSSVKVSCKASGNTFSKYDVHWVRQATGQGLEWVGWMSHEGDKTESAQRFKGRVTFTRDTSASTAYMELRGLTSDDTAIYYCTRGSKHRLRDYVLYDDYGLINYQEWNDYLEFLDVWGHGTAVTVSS
4993_K13 (PGT-141) (antibody), sequence (VL): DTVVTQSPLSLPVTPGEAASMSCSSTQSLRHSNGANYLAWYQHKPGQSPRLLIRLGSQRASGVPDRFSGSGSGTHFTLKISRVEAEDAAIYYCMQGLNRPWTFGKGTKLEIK
4995_E20 (PGT-142) (antibody), sequence (VH): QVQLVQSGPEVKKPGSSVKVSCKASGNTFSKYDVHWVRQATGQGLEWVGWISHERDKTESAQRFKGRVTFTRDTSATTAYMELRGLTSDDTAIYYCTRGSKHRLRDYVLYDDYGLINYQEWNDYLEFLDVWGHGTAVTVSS

4970_K22 (PGT-144) (antibody)
IC50 (µg/mL), pseudovirus neutralization [1]: 9.97 µg/mL | IC50 (µg/mL), pseudovirus neutralization [2]: 3.84 µg/mL | IC50 (µg/mL), pseudovirus neutralization [3]: 7.92 µg/mL | IC50 (µg/mL), pseudovirus neutralization [4]: > 50 µg/mL | IC50 (µg/mL), pseudovirus neutralization [5]: 0.104 µg/mL

4995_E20 (PGT-142) (antibody)
IC50 (µg/mL), pseudovirus neutralization [1]: 0.125 µg/mL | IC50 (µg/mL), pseudovirus neutralization [2]: 0.019 µg/mL | IC50 (µg/mL), pseudovirus neutralization [3]: 0.054 µg/mL | IC50 (µg/mL), pseudovirus neutralization [4]: > 50 µg/mL | IC50 (µg/mL), pseudovirus neutralization [5]: 0.001 µg/mL

5141_B17 (PGT-126) (antibody)
IC50 [6]: > 50 µg/mL | IC50, pseudovirus neutralization [7]: > 50 µg/mL | IC50 (µg/mL), pseudovirus neutralization [8]: 0.012 µg/mL | IC50 (µg/mL), pseudovirus neutralization [9]: 0.048 µg/mL | IC50 (µg/mL), pseudovirus neutralization [10]: 0.015 µg/mL | IC50 [11]: > 50 µg/mL | neutralization IC50 [12]: 0.279 µg/mL | neutralization IC50 [13]: 0.007 µg/mL | IC50 (µg/mL), pseudovirus neutralization [14]: 0.022 µg/mL | IC50, pseudovirus neutralization [15]: 0.063 µg/mL | IC50 (µg/mL), pseudovirus neutralization [16]: > 50 µg/mL | IC50, pseudovirus neutralization [17]: 0.792 µg/mL | IC50, pseudovirus neutralization [18]: 0.0046 µg/mL | IC80 (pseudovirus neutralization) [18]: 0.0168 µg/mL | IC90 (pseudovirus neutralization) [18]: 0.0359 µg/mL | IC95 (pseudovirus neutralization) [18]: 0.0728 µg/mL

1496_C09 (PG9) (TCN-109) (antibody)
IC50 (µg/ml), pseudovirus neutralization [19]: 0.62 µg/mL | IC50 (µg/ml), pseudovirus neutralization [20]: 0.27 µg/mL | IC50 (µg/mL), pseudovirus neutralization [1]: 0.104 µg/mL | IC50 (µg/ml), pseudovirus neutralization [21]: 1.07 µg/mL | IC50 (µg/mL), pseudovirus neutralization [22]: 8.12 µg/mL | IC50 (µg/ml), pseudovirus neutralization [23]: 0.18 µg/mL | IC50 (µg/ml), pseudovirus neutralization [24]: 0.91 µg/mL | IC50 (µg/mL), pseudovirus neutralization [2]: 1.98 µg/mL | IC50 (µg/mL), pseudovirus neutralization [3]: 0.163 µg/mL | IC50 (µg/ml), pseudovirus neutralization [25]: 0.06 µg/mL | IC50 (µg/ml), pseudovirus neutralization [26]: 0.22 µg/mL | IC50 (µg/ml), pseudovirus neutralization [27]: 0.05 µg/mL | IC50 (µg/ml), pseudovirus neutralization [28]: 0.03 µg/mL | IC50 (µg/ml), pseudovirus neutralization [29]: 0.67 µg/mL | IC50 [30]: 7.69 µg/mL | IC50 (µg/ml), pseudovirus neutralization [31]: 0.19 µg/mL | IC50, pseudovirus neutralization [18]: 0.0637 µg/mL | IC50 [32]: 0.01 µg/mL

VRC01 (antibody)
IC50 (µg/mL), pseudovirus neutralization [1]: 0.124 µg/mL | IC50 (µg/mL), pseudovirus neutralization [2]: 0.055 µg/mL | IC50 (µg/mL), pseudovirus neutralization [3]: 0.025 µg/mL | IC50 (µg/mL), pseudovirus neutralization [4]: 0.515 µg/mL | IC50 (µg/mL), pseudovirus neutralization [5]: 0.187 µg/mL | IC50 (µg/mL), pseudovirus neutralization [13]: 0.707 µg/mL | IC50 [33]: > 50 µg/mL

PGV04 (antibody)
IC50 (µg/mL), pseudovirus neutralization [1]: 0.065 µg/mL | IC50 (µg/mL), pseudovirus neutralization [22]: 0.255 µg/mL | IC50 (µg/mL), pseudovirus neutralization [2]: 0.083 µg/mL | IC50 (µg/mL), pseudovirus neutralization [3]: 0.033 µg/mL

5123_A06 (PGT-125) (antibody)
IC50 [6]: 0.876 µg/mL | IC50, pseudovirus neutralization [7]: > 50 µg/mL | IC50 (µg/mL), pseudovirus neutralization [8]: 0.007 µg/mL | IC50 (µg/mL), pseudovirus neutralization [9]: 0.048 µg/mL | IC50 (µg/mL), pseudovirus neutralization [10]: 0.009 µg/mL | IC50 [11]: > 50 µg/mL | neutralization IC50 [12]: 22.1 µg/mL | neutralization IC50 [13]: 0.005 µg/mL | IC50 (µg/mL), pseudovirus neutralization [14]: 0.01 µg/mL | IC50, pseudovirus neutralization [15]: > 50 µg/mL | IC50 (µg/mL), pseudovirus neutralization [16]: > 50 µg/mL | IC50, pseudovirus neutralization [17]: > 50 µg/mL

4993_K13 (PGT-141) (antibody)
IC50 (µg/mL), pseudovirus neutralization [1]: 0.164 µg/mL | IC50 (µg/mL), pseudovirus neutralization [2]: 0.043 µg/mL | IC50 (µg/mL), pseudovirus neutralization [3]: 0.051 µg/mL | IC50 (µg/mL), pseudovirus neutralization [4]: > 50 µg/mL | IC50 (µg/mL), pseudovirus neutralization [5]: 0.001 µg/mL
